# Laboratory results as given in patent US20260193293A1, “PEPTIDES CAPABLE OF INHIBITING PROTEIN-PROTEIN INTERACTIONS AT GABAB1A SUBUNIT AND USES THEREOF” (UNIVERSITY OF COPENHAGEN, priority 2022, published 2026).
# Non-standard residues stand in square brackets, D forms with d. Sar = CNCC(=O)O
# Molecular target: Sushi domains (SD1/2) protein of GABAB1a (GB1a)
# Test: FP competition vs TAMRA AJAP-1probe
# Sequence of Sushi domains (SD1/2) protein of GABAB1a (GB1a) (Q9Z0U4 29-158): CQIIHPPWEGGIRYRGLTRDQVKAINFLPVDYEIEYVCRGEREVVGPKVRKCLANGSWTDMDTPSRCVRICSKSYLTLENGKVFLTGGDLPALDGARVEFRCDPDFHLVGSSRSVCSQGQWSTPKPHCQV
row,Binder,Ki [nM]
1,Ac-RRRREDDDWIDWYDSDDD-NH2 [4R-16],20.6
2,Ac-RRRREDDDWIDWGPTSDDD-NH2 [4R-17],15
3,Ac-EDDDWIDWYDSDDDEAAAKRRRRRRRR-NH2 [16-RL-R8],99.5
4,Ac-EDDDWIDWYDSDDD-NH2 [peptide 16],3.2
5,Ac-RRRRRRRREAAAKEDDDWIDWYDSDDD-NH2 [R8-RL-16],314
6,Ac-ETEFIAWGGADTD-NH2 [hybrid peptide Y],345
7,Ac-EDDDWIDWGPTSDDDEAAAKRRRRRRRR-NH2 [17-RL-R8],139
8,Ac-RRRRRRRREDDDWIDWGPTSDDD-NH2 [R8-17],58.1
9,Ac-RRREDDDWIDWGPTSDDD-NH2 [R3-17],9
10,Ac-RRREDDDWIDWYDSDDD-NH2 [R3-16],6.4
11,Ac-RRRRRRRRGGGGSEDDDWIDWYDSDDD-NH2 [R8-FL-16],280
12,Ac-EDDSDVWWGPTGDED-NH2 [hybrid peptide X],62
13,Ac-RRRRRRRREDDDWIDWYDSDDD-NH2 [R8-16],107
14,Ac-RRRRRRRRGGGGSEDDDWIDWGPTSDDD-NH2 [R8-FL-17],140
15,Ac-EDDDWIDWGPTSDDDRRRRRRRR-NH2 [17-R8],123
16,Ac-EDDDWIDWYDSDDDGGGGSRRRRRRRR-NH2 [16-FL-R8],118
17,Ac-RRRRRRRREAAAKEDDDWIDWGPTSDDD-NH2 [R8-RL-17],105
18,Ac-EDDDWIDWGPTSDDDGGGGSRRRRRRRR-NH2 [17-FL-R8],147
19,Ac-EDDDWIDWYDSDDDRRRRRRRR-NH2 [16-R8],65.3

# The remaining lines, values ahead:
row,Ki [nM],Binder
1,95,Ac-ETEFIAWYGADTD-NH2 [peptide 37]
2,138,Ac-EDDSDVWWYG[Sar]TGDED-NH2 (SMILES CC(=O)N[C@@H](CCC(=O)O)C(=O)N[C@@H](CC(=O)O)C(=O)N[C@@H](CC(=O)O)C(=O)N[C@@H](CO)C(=O)N[C@@H](CC(=O)O)C(=O)N[C@H](C(=O)N[C@@H](Cc1c[nH]c2ccccc12)C(=O)N[C@@H](Cc1c[nH]c2ccccc12)C(=O)N[C@@H](Cc1ccc(O)cc1)C(=O)NCC(=O)N(C)CC(=O)N[C@H](C(=O)NCC(=O)N[C@@H](CC(=O)O)C(=O)N[C@@H](CCC(=O)O)C(=O)N[C@@H](CC(=O)O)C(N)=O)[C@@H](C)O)C(C)C)
3,190,Ac-ETEFIAWYPADTD-NH2
4,11,Ac-EDDSWIDWYGADTD-NH2 [peptide 30]
5,5.6,Ac-EDDSWIDWGPTGDED-NH2 [peptide 29]
6,182,Ac-ETEFIAWYGPADTD-NH2
7,195,Ac-ETEFIAWYGPTGDED-NH2
8,36,Ac-EDDSWVWWG[Sar]ADTD-NH2 (SMILES CC(=O)N[C@@H](CCC(=O)O)C(=O)N[C@@H](CC(=O)O)C(=O)N[C@@H](CC(=O)O)C(=O)N[C@@H](CO)C(=O)N[C@@H](Cc1c[nH]c2ccccc12)C(=O)N[C@H](C(=O)N[C@@H](Cc1c[nH]c2ccccc12)C(=O)N[C@@H](Cc1c[nH]c2ccccc12)C(=O)NCC(=O)N(C)CC(=O)N[C@@H](C)C(=O)N[C@@H](CC(=O)O)C(=O)N[C@H](C(=O)N[C@@H](CC(=O)O)C(N)=O)[C@@H](C)O)C(C)C)
9,70.9,Ac-RRRRRREDDDWIDWYDSDDD-NH2
10,222,Ac-PWAIVWGPTGDED-NH2
11,148,Ac-ETEFIAWGPTVSRED-NH2
12,65,Ac-RRRRRRREDDDWIDWGPTSDDD-NH2
13,164,Ac-EDDSDVWWYG[Sar]ADTD-NH2 (SMILES CC(=O)N[C@@H](CCC(=O)O)C(=O)N[C@@H](CC(=O)O)C(=O)N[C@@H](CC(=O)O)C(=O)N[C@@H](CO)C(=O)N[C@@H](CC(=O)O)C(=O)N[C@H](C(=O)N[C@@H](Cc1c[nH]c2ccccc12)C(=O)N[C@@H](Cc1c[nH]c2ccccc12)C(=O)N[C@@H](Cc1ccc(O)cc1)C(=O)NCC(=O)N(C)CC(=O)N[C@@H](C)C(=O)N[C@@H](CC(=O)O)C(=O)N[C@H](C(=O)N[C@@H](CC(=O)O)C(N)=O)[C@@H](C)O)C(C)C)
14,18,Ac-EDDSWIWWYGADTD-NH2 [peptide 28]
15,16,Ac-EDDSWIWWGPTGDED-NH2 [peptide 27]
16,43.4,Ac-RRRRRREDDDWIDWGPTSDDD-NH2
17,4,Ac-EDDDWIDWGPTSDDD-NH2 [peptide 17]
18,32,Ac-ETEFIAWG[Sar]TGDED-NH2 (SMILES CC[C@H](C)[C@H](NC(=O)[C@H](Cc1ccccc1)NC(=O)[C@H](CCC(=O)O)NC(=O)[C@@H](NC(=O)[C@H](CCC(=O)O)NC(C)=O)[C@@H](C)O)C(=O)N[C@@H](C)C(=O)N[C@@H](Cc1c[nH]c2ccccc12)C(=O)NCC(=O)N(C)CC(=O)N[C@H](C(=O)NCC(=O)N[C@@H](CC(=O)O)C(=O)N[C@@H](CCC(=O)O)C(=O)N[C@@H](CC(=O)O)C(N)=O)[C@@H](C)O) [peptide 38]
19,201,Ac-EDDSDVWWY[Sar]ADTD-NH2 (SMILES CC(=O)N[C@@H](CCC(=O)O)C(=O)N[C@@H](CC(=O)O)C(=O)N[C@@H](CC(=O)O)C(=O)N[C@@H](CO)C(=O)N[C@@H](CC(=O)O)C(=O)N[C@H](C(=O)N[C@@H](Cc1c[nH]c2ccccc12)C(=O)N[C@@H](Cc1c[nH]c2ccccc12)C(=O)N[C@@H](Cc1ccc(O)cc1)C(=O)N(C)CC(=O)N[C@@H](C)C(=O)N[C@@H](CC(=O)O)C(=O)N[C@H](C(=O)N[C@@H](CC(=O)O)C(N)=O)[C@@H](C)O)C(C)C)
20,142,Ac-EDDSDVWWY[Sar]TGDED-NH2 (SMILES CC(=O)N[C@@H](CCC(=O)O)C(=O)N[C@@H](CC(=O)O)C(=O)N[C@@H](CC(=O)O)C(=O)N[C@@H](CO)C(=O)N[C@@H](CC(=O)O)C(=O)N[C@H](C(=O)N[C@@H](Cc1c[nH]c2ccccc12)C(=O)N[C@@H](Cc1c[nH]c2ccccc12)C(=O)N[C@@H](Cc1ccc(O)cc1)C(=O)N(C)CC(=O)N[C@H](C(=O)NCC(=O)N[C@@H](CC(=O)O)C(=O)N[C@@H](CCC(=O)O)C(=O)N[C@@H](CC(=O)O)C(N)=O)[C@@H](C)O)C(C)C)
21,4.6,Ac-EDDYIDWYDSDDD-NH2 [peptide 18]
22,32,Ac-RRRRREDDDWIDWGPTSDDD-NH2
23,39.5,Ac-RRRRREDDDWIDWYDSDDD-NH2
24,89.1,Ac-RRRRRRREDDDWIDWYDSDDD-NH2
25,3.8,Ac-EDDYIDWGPTSDDD-NH2 [peptide 19]
